Results on four substances are retold here after publication PMC6650136, “Awakening the Sleeping Carboxylase Function of Enzymes: Engineering the Natural CO2-Binding Potential of Reductases” (Journal of the American Chemical Society, 2019).

One may read the Km as the substrate concentration at which the rate is half of its maximum. What is called kcat is the number of substrate molecules converted per active site and unit of time at saturation.

The subject of this series is C=CC(=O)SCCNC(=O)CCNC(=O)[C@H](O)C(C)(C)COP(=O)(O)OP(=O)(O)OC[C@H]1O[C@@H](n2cnc3c(N)ncnc32)[C@H](O)[C@@H]1OP(=O)(O)O. Briefly: purified protein. Particulars: apparent; kcat at 4.4 mM CO2, combined reduction and carboxylation.
Source text: steady-state kinetics, Michaelis-Menten fit on PCSEN_ΔDH (propionyl-CoA synthase, reductase domain activity)
Take “PCSEN_ΔDH (propionyl-CoA synthase, reductase domain activity) (Erythrobacter sp. NAP1; D1302S/E1027Q)”: the Km amounted to 27 ± 3 µM and the kcat amounted to 1.77 ± 0.09 s⁻¹.

Take “PCSEN_ΔDH (propionyl-CoA synthase, reductase domain activity) (Erythrobacter sp. NAP1; E1027Q)”: the Michaelis constant (Km) came to 14 ± 2 µM and the kcat amounted to 7.4 ± 1.0 s⁻¹.

For the substance “PCSEN_ΔDH (propionyl-CoA synthase, reductase domain activity) (Erythrobacter sp. NAP1; E1027Q/T1753M)”, the Km was determined as 19.7 ± 1.2 µM and the kcat was found to be 6.5 ± 0.6 s⁻¹.

In the case of “PCSEN_ΔDH (propionyl-CoA synthase, reductase domain activity) (Erythrobacter sp. NAP1; D1302S/E1027Q/T1753M)”, the Michaelis-Menten constant (Km) came out at 26 ± 3 µM and the kcat is 0.46 ± 0.03 s⁻¹.
